Results on eight substances are retold here after paper PMC9075797.

For the first test, the target named is SARS-CoV-2 RBD tagged with a C-terminal Fc tag (SARS-CoV-2) (UniProt P0DTC2). The experiment in a line: BLI. (In general: In BLI a coated tip is dipped into the sample, and binding shifts an interference pattern.)
What is called Kd is the equilibrium constant for the complex coming apart. A higher Kd goes with weaker binding. As usually defined, the koff is the first-order rate constant of dissociation. Read a low koff as slow dissociation. As a reminder, the kon is the rate constant with which the complex forms. The low end stands for slower complex formation, the high end for faster complex formation. Regarding “(Nb1_(42))2, Tet-linked homodimer of VHH72 with Tet3.0 at Gly42”, the dissociation constant Kd turned out to be 27.5 nM, the koff worked out at 0.00201 s⁻¹ and the association rate constant (kon) was 73100 M⁻¹ s⁻¹.
In the case of “(Nb1N)-(Nb2_(42)), Tet-linked heterodimer of VHH72 (Tet3.0 at the N terminus) and H11-H4 (Tet3.0 at Gly42)”, the Kd is 3.93 nM, the koff came out at 0.000593 s⁻¹ and the kon is 151000 M⁻¹ s⁻¹.
“(Nb1N)3, Tet-linked homotrimer of VHH72 with Tet3.0 at the N terminus” registered a Kd of 2.31 nM, an off-rate constant (koff) of 0.000566 s⁻¹ and a kon of 246000 M⁻¹ s⁻¹.
The matching figures for “(Nb1_(13))2, Tet-linked homodimer of VHH72 with Tet3.0 at Gln13”: 46 nM, 0.00156 s⁻¹ and 33800 M⁻¹ s⁻¹.
The substance “(Nb1N)2, Tet-linked homodimer of VHH72 with Tet3.0 at the N terminus” displayed a Kd of 13.8 nM, an off-rate constant (koff) of 0.00119 s⁻¹ and a kon of 85800 M⁻¹ s⁻¹.

The next test has as its target SARS-CoV-2 RBD tagged with a C-terminal Fc tag (SARS-CoV-2; strain not stated, ancestral (Wuhan-Hu-1) assumed) (UniProt P0DTC2). The experiment in a line: BLI.
“Nb1-Nb1 tail-to-head genetically linked dimer of VHH72” registered a koff of 0.00314 s⁻¹ and a kon of 35400 M⁻¹ s⁻¹.
On to “Nb1-Nb1-Nb1 tail-to-head genetically linked trimer of VHH72”, for which the Kd stood at 27.9 nM, the koff is 0.00156 s⁻¹ and the kon worked out at 57900 M⁻¹ s⁻¹.
The matching figures for “(Nb1C)2, Tet-linked homodimer of VHH72 with Tet3.0 at the C terminus”: 132 nM, 0.0064 s⁻¹ and 48100 M⁻¹ s⁻¹.
